Source: the supplement of paper PMC9112550, “Optimization of the antimicrobial peptide Bac7 by deep mutational scanning” (BMC Biology, 2022)

Tested on: Escherichia coli TOP10
Assay: shrunken log2 fold change of peptide-encoding DNA abundance (4.5 h post-induction vs induction); higher = less antimicrobial activity (less host growth inhibition)
Conditions: time post-induction: 4.5 h; library: site-saturation at positions 5, 18, 19, 20
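Also: peptides expressed intracellularly from a pBAD plasmid library in pooled LB shake-flask culture, induced with 0.3% L-arabinose, DNA abundance read by NGS, three biological replicates, DESeq2 with apeglm shrinkage.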

| Sequence | shrunken log2 fold change |
| --- | --- |
| RRIRYRPPRLPRPRPRPPQRPRP | 0.00441 |
| RRIRARPPRLPRPRPRPCPTPRP | 0.088 |
| RRIRLRPPRLPRPRPRPNYDPRP | -0.372 |
| RRIRARPPRLPRPRPRPEYDPRP | 0.695 |
| RRIRNRPPRLPRPRPRPASGPRP | 0.247 |
| RRIRGRPPRLPRPRPRPFGMPRP | 0.228 |
| RRIRDRPPRLPRPRPRPACVPRP | 0.337 |
| RRIRHRPPRLPRPRPRPRPVPRP | 0.22 |
| RRIRWRPPRLPRPRPRPIQEPRP | -0.0126 |
| RRIRARPPRLPRPRPRPYCWPRP | -0.258 |
| RRIRLRPPRLPRPRPRPVPRPRP | 0.352 |
| RRIRPRPPRLPRPRPRPRWVPRP | 0.164 |
| RRIRKRPPRLPRPRPRPNDLPRP | -0.054 |
| RRIRKRPPRLPRPRPRPNIIPRP | 0.00713 |
| RRIRNRPPRLPRPRPRPNQAPRP | -0.0207 |
| RRIRARPPRLPRPRPRPDIWPRP | 0.69 |
| RRIRNRPPRLPRPRPRPHTAPRP | -0.158 |
| RRIRSRPPRLPRPRPRPRQIPRP | -0.066 |
| RRIRYRPPRLPRPRPRPFGFPRP | -0.918 |
| RRIRLRPPRLPRPRPRPPYDPRP | -0.188 |
| RRIRVRPPRLPRPRPRPIGSPRP | -0.0343 |
| RRIRERPPRLPRPRPRPGADPRP | 0.146 |
| RRIRCRPPRLPRPRPRPLCRPRP | 0.0269 |
| RRIRIRPPRLPRPRPRPAKDPRP | -0.268 |
| RRIRLRPPRLPRPRPRPTDWPRP | 0.947 |

| Sequence | shrunken log2 fold change |
| --- | --- |
| RRIRNRPPRLPRPRPRPHLNPRP | -0.599 |
| RRIRNRPPRLPRPRPRPCTKPRP | 0.00474 |
| RRIRARPPRLPRPRPRPFSCPRP | -0.122 |
| RRIRMRPPRLPRPRPRPRSEPRP | 0.81 |
| RRIRQRPPRLPRPRPRPWFDPRP | -0.253 |
| RRIRQRPPRLPRPRPRPRFWPRP | 0.23 |
| RRIRKRPPRLPRPRPRPWGWPRP | 0.691 |
| RRIRERPPRLPRPRPRPLVVPRP | 0.0509 |
| RRIRHRPPRLPRPRPRPHEHPRP | 0.103 |
| RRIRGRPPRLPRPRPRPDCVPRP | 1.39 |
| RRIRCRPPRLPRPRPRPNWYPRP | 0.09 |
| RRIRCRPPRLPRPRPRPAWGPRP | 0.193 |
| RRIRIRPPRLPRPRPRPDAMPRP | -0.112 |
| RRIRKRPPRLPRPRPRPFILPRP | -0.0304 |
| RRIRKRPPRLPRPRPRPQRIPRP | 0.0286 |
| RRIRMRPPRLPRPRPRPYCGPRP | -0.0255 |
| RRIRERPPRLPRPRPRPILPPRP | -0.182 |
| RRIRGRPPRLPRPRPRPADFPRP | 0.149 |
| RRIRHRPPRLPRPRPRPKHYPRP | -0.577 |
| RRIRGRPPRLPRPRPRPNIFPRP | 0.398 |
| RRIRCRPPRLPRPRPRPFIMPRP | -0.765 |
| RRIRTRPPRLPRPRPRPLLVPRP | -0.119 |
| RRIRTRPPRLPRPRPRPIWLPRP | -0.201 |
| RRIRGRPPRLPRPRPRPCFGPRP | 0.262 |
| RRIRMRPPRLPRPRPRPVVSPRP | 0.095 |

| Sequence | shrunken log2 fold change |
| --- | --- |
| RRIRCRPPRLPRPRPRPYFWPRP | -0.347 |
| RRIRERPPRLPRPRPRPQKLPRP | -0.69 |
| RRIRWRPPRLPRPRPRPLAYPRP | 0.0203 |
| RRIRQRPPRLPRPRPRPVWTPRP | 0.0102 |
| RRIRQRPPRLPRPRPRPSNDPRP | -0.357 |
| RRIRHRPPRLPRPRPRPFNRPRP | 0.00911 |
| RRIRMRPPRLPRPRPRPDCSPRP | 0.172 |
| RRIRFRPPRLPRPRPRPSGNPRP | -0.24 |
| RRIRCRPPRLPRPRPRPLGHPRP | -0.372 |
| RRIRMRPPRLPRPRPRPSPPPRP | 0.74 |
| RRIRSRPPRLPRPRPRPNDQPRP | -0.102 |
| RRIRGRPPRLPRPRPRPDRAPRP | 1.04 |
| RRIRWRPPRLPRPRPRPDMCPRP | 0.262 |
| RRIRPRPPRLPRPRPRPDAFPRP | 0.342 |
| RRIRTRPPRLPRPRPRPGGWPRP | 1.23 |
| RRIRGRPPRLPRPRPRPQPFPRP | -0.0232 |
| RRIRYRPPRLPRPRPRPLRTPRP | -0.151 |
| RRIRIRPPRLPRPRPRPMEYPRP | -0.395 |
| RRIRERPPRLPRPRPRPTYGPRP | 0.158 |
| RRIRLRPPRLPRPRPRPKFMPRP | 0.149 |
| RRIRLRPPRLPRPRPRPWHKPRP | -0.0761 |
| RRIRYRPPRLPRPRPRPSCYPRP | -0.0789 |
| RRIRSRPPRLPRPRPRPCRYPRP | -0.424 |
| RRIRYRPPRLPRPRPRPTSSPRP | -0.0743 |
| RRIRVRPPRLPRPRPRPAPHPRP | 0.286 |

| Sequence | shrunken log2 fold change |
| --- | --- |
| RRIRNRPPRLPRPRPRPVLSPRP | 0.0114 |
| RRIRHRPPRLPRPRPRPMAFPRP | 0.166 |
| RRIRWRPPRLPRPRPRPCDDPRP | -0.00725 |
| RRIRQRPPRLPRPRPRPVGCPRP | 0.23 |
| RRIRRRPPRLPRPRPRPTRIPRP | 0.71 |
| RRIRNRPPRLPRPRPRPMNQPRP | -0.123 |
| RRIRVRPPRLPRPRPRPGMWPRP | 0.149 |
| RRIRWRPPRLPRPRPRPGSYPRP | -0.0955 |
| RRIRSRPPRLPRPRPRPLLAPRP | 0.602 |
| RRIRDRPPRLPRPRPRPQNWPRP | -0.00585 |
| RRIRWRPPRLPRPRPRPRLHPRP | 0.191 |
| RRIRKRPPRLPRPRPRPHVEPRP | -0.0479 |
| RRIRERPPRLPRPRPRPTVEPRP | -0.0686 |
| RRIRYRPPRLPRPRPRPREYPRP | 0.0168 |
| RRIRGRPPRLPRPRPRPKLKPRP | 0.862 |
| RRIRERPPRLPRPRPRPMRTPRP | 0.0487 |
| RRIRKRPPRLPRPRPRPIPTPRP | 0.397 |
| RRIRLRPPRLPRPRPRPAHFPRP | -0.197 |
| RRIRSRPPRLPRPRPRPGRIPRP | -0.0494 |
| RRIRHRPPRLPRPRPRPQHVPRP | -0.048 |
| RRIRPRPPRLPRPRPRPKNCPRP | -0.238 |
| RRIRARPPRLPRPRPRPDGIPRP | 0.446 |
| RRIRTRPPRLPRPRPRPPCVPRP | -0.121 |
| RRIRFRPPRLPRPRPRPDFVPRP | -0.0292 |
| RRIRIRPPRLPRPRPRPYGEPRP | -0.148 |

| Sequence | shrunken log2 fold change |
| --- | --- |
| RRIRYRPPRLPRPRPRPEGCPRP | 0.204 |
| RRIRVRPPRLPRPRPRPPFAPRP | 0.583 |
| RRIRLRPPRLPRPRPRPDNGPRP | -0.0567 |
| RRIRPRPPRLPRPRPRPVCDPRP | 0.333 |
| RRIRCRPPRLPRPRPRPEVPPRP | -0.119 |
| RRIRVRPPRLPRPRPRPMEMPRP | -0.0249 |
| RRIRYRPPRLPRPRPRPSQVPRP | -0.518 |
| RRIRTRPPRLPRPRPRPLTEPRP | -0.23 |
| RRIRRRPPRLPRPRPRPECVPRP | 0.419 |
| RRIRRRPPRLPRPRPRPTGVPRP | 0.616 |
| RRIRFRPPRLPRPRPRPQDVPRP | -0.193 |
| RRIRTRPPRLPRPRPRPPIQPRP | 0.0675 |
| RRIRCRPPRLPRPRPRPTSEPRP | 0.108 |
| RRIRHRPPRLPRPRPRPQAWPRP | 0.00326 |
| RRIRSRPPRLPRPRPRPRMPPRP | 0.0543 |
| RRIRIRPPRLPRPRPRPAVNPRP | 0.131 |
| RRIRHRPPRLPRPRPRPWGDPRP | 0.0821 |
| RRIRDRPPRLPRPRPRPHCSPRP | 0.0218 |
| RRIRSRPPRLPRPRPRPLDQPRP | -0.0226 |
| RRIRHRPPRLPRPRPRPPRDPRP | 0.346 |
| RRIRCRPPRLPRPRPRPFKEPRP | -0.342 |
| RRIRFRPPRLPRPRPRPCACPRP | -0.0607 |
| RRIRPRPPRLPRPRPRPYRKPRP | 0.0208 |
| RRIRNRPPRLPRPRPRPTDTPRP | -0.08 |
| RRIRCRPPRLPRPRPRPRNFPRP | -0.0465 |
